Laboratory results: US20060142223A1

Molecular target: human F0F1-ATP synthase (complex V) (human)
Test: cell-based or functional assay

mitochondrial (oligomycin-sensitive) ATP synthesis in mutant (8993G) cybrids stably transfected with pCrA6F, against untransfected mutant cybrids: 75%
B1: mature CrATP6F polypeptide (Chlamydomonas reinhardtii ATPase 6 subunit of F0F1-ATP synthase with C-terminal FLAG epitope tag, after cleavage of the … (protein)
chain: STAAQVQSGATVNSLLLGIYRFWRSQAPMDKPHAPVDDRMLPAIVDASDNRAALGTWATALFCTILASNLLGLVPTNEAPTSGLGFATGLGVSVWATATTLGLYKLGFSFPGHFIPGGTPWPMAFIFVPLETISYTFRAVSLGVRLWVNMLAGHTLLHILTGMALALPFSLSFFAMVPATFAVACLLSALVGLEYLVAVLQSGVFSILSTVYVGEFNSVKLAGPLAKVVKKALDYKDDDDK
